# According to patent US20210388087A1 (Chugai, published 2021):
# Positions count from the first letter of the chain named.
# B1: CE115HA000/GLS3000 H34L (antibody, IgG1, name in Kabat numbering, V domains shown)
# VH: QVQLVESGGGVVQPGRSLRLSCAASGFTFSNAWMHWVRQAPGKGLEWVAQIKAKSNNYATYYAESVKGRFTISRDDSKNSLYLQMNSLKTEDTAVYYCRYVHYGAYYGVDAWGQGTTVTVSS
# VL: DIVMTQSPLSLPVTPGEPASISCRSSQSLVHSNRNTYLLWYQQKPGQAPRLLIYKVSNRFSGVPDRFSGSGSGTDFTLKISRVEAEDVGVYYCGQGTQVPYTFGQGTKLEIK
# notes: one-arm IgG1
# B2: CE115HA000/GLS3000 K50A (antibody, IgG1, name in Kabat numbering, V domains shown)
# VH: B1 VH
# VL: B1 VL with L39H, K55A
# notes: one-arm IgG1
# B3: CE115HA000/GLS3000 L27bF (antibody, IgG1, name in Kabat numbering, V domains shown)
# VH: B1 VH
# VL: B1 VL with L29F, L39H
# notes: one-arm IgG1
# B4: CE115HA000/GLS3000 K74T (antibody, IgG1, name in Kabat numbering, V domains shown)
# VH: B1 VH
# VL: B1 VL with L39H, K79T
# notes: one-arm IgG1
# B5: CE115HA000/GLS3000 H34T (antibody, IgG1, name in Kabat numbering, V domains shown)
# VH: B1 VH
# VL: B1 VL with L39T
# notes: one-arm IgG1
# B6: CE115HA000/GLS3000 K50L (antibody, IgG1, name in Kabat numbering, V domains shown)
# VH: B1 VH
# VL: B1 VL with L39H, K55L
# notes: one-arm IgG1
# B7: CE115HA000/GLS3000 L33A (antibody, IgG1, name in Kabat numbering, V domains shown)
# VH: B1 VH
# VL: B1 VL with L38A, L39H
# notes: one-arm IgG1
# B8: CE115HA000/GLS3000 L33F (antibody, IgG1, name in Kabat numbering, V domains shown)
# VH: B1 VH
# VL: B1 VL with L38F, L39H
# notes: one-arm IgG1
# B9: CE115HA000/GLS3000 L27bV (antibody, IgG1, name in Kabat numbering, V domains shown)
# VH: B1 VH
# VL: B1 VL with L29V, L39H
# notes: one-arm IgG1
# B10: CE115HA000/GLS3000 L27bS (antibody, IgG1, name in Kabat numbering, V domains shown)
# VH: B1 VH
# VL: B1 VL with L29S, L39H
# notes: one-arm IgG1
# B11: CE115HA000/GLS3000 L27bI (antibody, IgG1, name in Kabat numbering, V domains shown)
# VH: B1 VH
# VL: B1 VL with L29I, L39H
# notes: one-arm IgG1
# B12: CE115HA000/GLS3000 K50P (antibody, IgG1, name in Kabat numbering, V domains shown)
# VH: B1 VH
# VL: B1 VL with L39H, K55P
# notes: one-arm IgG1
# B13: CE115HA000/GLS3000 H34V (antibody, IgG1, name in Kabat numbering, V domains shown)
# VH: B1 VH
# VL: B1 VL with L39V
# notes: one-arm IgG1
# B14: CE115HA000/GLS3000 H34P (antibody, IgG1, name in Kabat numbering, V domains shown)
# VH: B1 VH
# VL: B1 VL with L39P
# notes: one-arm IgG1
# B15: CE115HA000/GLS3000 K50G (antibody, IgG1, name in Kabat numbering, V domains shown)
# VH: B1 VH
# VL: B1 VL with L39H, K55G
# notes: one-arm IgG1
# B16: CE115HA000/GLS3000 H34W (antibody, IgG1, name in Kabat numbering, V domains shown)
# VH: B1 VH
# VL: B1 VL with L39W
# notes: one-arm IgG1
# B17: CE115HA000/GLS3000 K107E (antibody, IgG1, name in Kabat numbering, V domains shown)
# VH: B1 VH
# VL: B1 VL with L39H, K112E
# notes: one-arm IgG1
# B18: CE115HA000/GLS3000 L33I (antibody, IgG1, name in Kabat numbering, V domains shown)
# VH: B1 VH
# VL: B1 VL with L38I, L39H
# notes: one-arm IgG1
# B19: CE115HA000/GLS3000 H34M (antibody, IgG1, name in Kabat numbering, V domains shown)
# VH: B1 VH
# VL: B1 VL with L39M
# notes: one-arm IgG1
# B20: CE115HA000/GLS3000 K50S (antibody, IgG1, name in Kabat numbering, V domains shown)
# VH: B1 VH
# VL: B1 VL with L39H, K55S
# notes: one-arm IgG1
# B21: CE115HA000/GLS3000 H34Q (antibody, IgG1, name in Kabat numbering, V domains shown)
# VH: B1 VH
# VL: B1 VL with L39Q
# notes: one-arm IgG1
# B22: CE115HA000/GLS3000 N28F (antibody, IgG1, name in Kabat numbering, V domains shown)
# VH: B1 VH
# VL: B1 VL with N33F, L39H
# notes: one-arm IgG1
# B23: CE115HA000/GLS3000 L27bD (antibody, IgG1, name in Kabat numbering, V domains shown)
# VH: B1 VH
# VL: B1 VL with L29D, L39H
# notes: one-arm IgG1
# B24: CE115HA000/GLS3000 N28A (antibody, IgG1, name in Kabat numbering, V domains shown)
# VH: B1 VH
# VL: B1 VL with N33A, L39H
# notes: one-arm IgG1
# B25: CE115HA000/GLS3000 K50R (antibody, IgG1, name in Kabat numbering, V domains shown)
# VH: B1 VH
# VL: B1 VL with L39H, K55R
# notes: one-arm IgG1
# B26: CE115HA000/GLS3000 L33P (antibody, IgG1, name in Kabat numbering, V domains shown)
# VH: B1 VH
# VL: B1 VL with L38P, L39H
# notes: one-arm IgG1
# B27: CE115HA000/GLS3000 L27bE (antibody, IgG1, name in Kabat numbering, V domains shown)
# VH: B1 VH
# VL: B1 VL with L29E, L39H
# notes: one-arm IgG1
# B28: CE115HA000/GLS3000 H34Y (antibody, IgG1, name in Kabat numbering, V domains shown)
# VH: B1 VH
# VL: B1 VL with L39Y
# notes: one-arm IgG1
# B29: CE115HA000/GLS3000 L33M (antibody, IgG1, name in Kabat numbering, V domains shown)
# VH: B1 VH
# VL: B1 VL with L38M, L39H
# notes: one-arm IgG1
# B30: CE115HA000/GLS3000 L27bM (antibody, IgG1, name in Kabat numbering, V domains shown)
# VH: B1 VH
# VL: B1 VL with L29M, L39H
# notes: one-arm IgG1
# B31: CE115HA000/GLS3000 L27bW (antibody, IgG1, name in Kabat numbering, V domains shown)
# VH: B1 VH
# VL: B1 VL with L29W, L39H
# notes: one-arm IgG1
# B32: CE115HA000/GLS3000 H34N (antibody, IgG1, name in Kabat numbering, V domains shown)
# VH: B1 VH
# VL: B1 VL with L39N
# notes: one-arm IgG1
# B33: CE115HA000/GLS3000 N28I (antibody, IgG1, name in Kabat numbering, V domains shown)
# VH: B1 VH
# VL: B1 VL with N33I, L39H
# notes: one-arm IgG1
# B34: CE115HA000/GLS3000 K50D (antibody, IgG1, name in Kabat numbering, V domains shown)
# VH: B1 VH
# VL: B1 VL with L39H, K55D
# notes: one-arm IgG1
# B35: CE115HA000/GLS3000 N28H (antibody, IgG1, name in Kabat numbering, V domains shown)
# VH: B1 VH
# VL: B1 VL with N33H, L39H
# notes: one-arm IgG1
# B36: CE115HA000/GLS3000 L33D (antibody, IgG1, name in Kabat numbering, V domains shown)
# VH: B1 VH
# VL: B1 VL with L38D, L39H
# notes: one-arm IgG1
# B37: CE115HA000/GLS3000 K50T (antibody, IgG1, name in Kabat numbering, V domains shown)
# VH: B1 VH
# VL: B1 VL with L39H, K55T
# notes: one-arm IgG1
# B38: CE115HA000/GLS3000 K50Q (antibody, IgG1, name in Kabat numbering, V domains shown)
# VH: B1 VH
# VL: B1 VL with L39H, K55Q
# notes: one-arm IgG1
# B39: CE115HA000/GLS3000 K50E (antibody, IgG1, name in Kabat numbering, V domains shown)
# VH: B1 VH
# VL: B1 VL with L39H, K55E
# notes: one-arm IgG1
# B40: CE115HA000/GLS3000 K50Y (antibody, IgG1, name in Kabat numbering, V domains shown)
# VH: B1 VH
# VL: B1 VL with L39H, K55Y
# notes: one-arm IgG1
# B41: CE115HA000/GLS3000 L27bY (antibody, IgG1, name in Kabat numbering, V domains shown)
# VH: B1 VH
# VL: B1 VL with L29Y, L39H
# notes: one-arm IgG1
# B42: CE115HA000/GLS3000 N28E (antibody, IgG1, name in Kabat numbering, V domains shown)
# VH: B1 VH
# VL: B1 VL with N33E, L39H
# notes: one-arm IgG1
# B43: CE115HA000/GLS3000 N28G (antibody, IgG1, name in Kabat numbering, V domains shown)
# VH: B1 VH
# VL: B1 VL with N33G, L39H
# notes: one-arm IgG1
# B44: CE115HA000/GLS3000 L33V (antibody, IgG1, name in Kabat numbering, V domains shown)
# VH: B1 VH
# VL: B1 VL with L38V, L39H
# notes: one-arm IgG1
# B45: CE115HA000/GLS3000 L33E (antibody, IgG1, name in Kabat numbering, V domains shown)
# VH: B1 VH
# VL: B1 VL with L38E, L39H
# notes: one-arm IgG1
# B46: CE115HA000/GLS3000 L27bP (antibody, IgG1, name in Kabat numbering, V domains shown)
# VH: B1 VH
# VL: B1 VL with L29P, L39H
# notes: one-arm IgG1
# B47: CE115HA000/GLS3000 H34S (antibody, IgG1, name in Kabat numbering, V domains shown)
# VH: B1 VH
# VL: B1 VL with L39S
# notes: one-arm IgG1
# Target: T1, CD3 epsilon homodimer protein (UniProt P07766 23-126)
# T1 construct: also called CD3 (CD3 epsilon)
# T1 sequence (P07766 23-126): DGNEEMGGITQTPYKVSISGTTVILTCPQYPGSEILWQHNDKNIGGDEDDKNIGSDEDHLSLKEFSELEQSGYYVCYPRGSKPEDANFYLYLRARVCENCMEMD
# Experiment: SPR, antibody over immobilised CD3e homodimer;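 note: SPR at 25 °C with CD3 epsilon homodimer amine-coupled to a CM4 sensor chip and antibody flowed over as analyte in HBS-EP+ running buffer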
# Experimental: An appropriate amount of CD3 epsilon homodimer protein was immobilized onto Sensor chip CM4 (GE Healthcare Japan Corp.) by the amine coupling method. Then, the antibody having an appropriate concentration was injected thereto as an analyte and allowed to interact with the CD3 epsilon homodimer protein on the sensor chip. Then, the sensor chip was regenerated by the injection of 10 mmol/L glycine-HCl (pH 1.5). The assay was conducted at 25 degrees C., and HBS-EP+(GE Healthcare Japan Corp.) was used as a running buffer. […] Each parameter was calculated using Biacore T200 Evaluation Software (GE Healthcare Japan Corp.).
row,Binder,KD ratio to GLS3000
1,B1,1.03
2,B2,59.5
3,B3,2.67
4,B4,0.85
5,B5,1.1
6,B6,36.4
7,B7,0.82
8,B8,0.65
9,B9,1.11
10,B10,0.9
11,B11,1.17
12,B12,27.7
13,B13,1.04
14,B14,1.22
15,B15,42.4
16,B16,8.45
17,B17,0.95
18,B18,0.86
19,B19,3.16
20,B20,45.3
21,B21,4.6
22,B22,2.59
23,B23,25.1
24,B24,4.18

row,Binder,KD ratio to GLS3000
1,B25,1.83
2,B26,32.9
3,B27,28.8
4,B28,2.44
5,B29,0.9
6,B30,1.31
7,B31,23.6
8,B32,2.84
9,B33,2.81
10,B34,114
11,B35,3
12,B36,37.5
13,B37,25.1
14,B38,8.13
15,B39,57.2
16,B40,195
17,B41,22.2
18,B42,5.47
19,B43,2.41
20,B44,1.26
21,B45,0.83
22,B46,0.96
23,B47,1.24
